Experimental data taken from US20240018213A1 (OHIO STATE INNOVATION FOUNDATION, published 2024).

Experiments:
mNotch1ECD-Fc [1] = target: T1, mNotch1ECD-Fc (mouse, UniProt Q01705 19-1725); assay: SPR (open SPR), mNotch1ECD-Fc immobilized, Tan 6 injected at 2.2, 0.45, 0.22, 0.11 and 0 µM; apparent KD
T1 construct: extracellular domain; Immobilized on the SPR chip; also called mouse full length notch extracellular domain; not shown: Fc part
Procedure: (§1) FIG. 25. Open surface plasmon resonance (SPR) binding experiments of DLL1 Tandem 6× against immobilized mouse full length notch extracellular domain (Top) and BSA negative control (bottom). DLL1 Tandem 6× was injected at concentrations of 2.2 μM, 0.45 μM, 0.22 μM, 0.11 μM, and 0 μM (HBS buffer only). Signal to noise of these binding experiments were 3 to 1.
(§2) The signal:noise of binding to Notch1 versus BSA is about 3:1 at the same concentrations.

mNotch1ECD-Fc [2] = target: T1, mNotch1ECD-Fc; assay: SPR, signal on immobilized mNotch1ECD-Fc against immobilized BSA negative control at the same Tan 6 concentrations
Procedure: as §1, §2

T1 sequence (Q01705 19-1725): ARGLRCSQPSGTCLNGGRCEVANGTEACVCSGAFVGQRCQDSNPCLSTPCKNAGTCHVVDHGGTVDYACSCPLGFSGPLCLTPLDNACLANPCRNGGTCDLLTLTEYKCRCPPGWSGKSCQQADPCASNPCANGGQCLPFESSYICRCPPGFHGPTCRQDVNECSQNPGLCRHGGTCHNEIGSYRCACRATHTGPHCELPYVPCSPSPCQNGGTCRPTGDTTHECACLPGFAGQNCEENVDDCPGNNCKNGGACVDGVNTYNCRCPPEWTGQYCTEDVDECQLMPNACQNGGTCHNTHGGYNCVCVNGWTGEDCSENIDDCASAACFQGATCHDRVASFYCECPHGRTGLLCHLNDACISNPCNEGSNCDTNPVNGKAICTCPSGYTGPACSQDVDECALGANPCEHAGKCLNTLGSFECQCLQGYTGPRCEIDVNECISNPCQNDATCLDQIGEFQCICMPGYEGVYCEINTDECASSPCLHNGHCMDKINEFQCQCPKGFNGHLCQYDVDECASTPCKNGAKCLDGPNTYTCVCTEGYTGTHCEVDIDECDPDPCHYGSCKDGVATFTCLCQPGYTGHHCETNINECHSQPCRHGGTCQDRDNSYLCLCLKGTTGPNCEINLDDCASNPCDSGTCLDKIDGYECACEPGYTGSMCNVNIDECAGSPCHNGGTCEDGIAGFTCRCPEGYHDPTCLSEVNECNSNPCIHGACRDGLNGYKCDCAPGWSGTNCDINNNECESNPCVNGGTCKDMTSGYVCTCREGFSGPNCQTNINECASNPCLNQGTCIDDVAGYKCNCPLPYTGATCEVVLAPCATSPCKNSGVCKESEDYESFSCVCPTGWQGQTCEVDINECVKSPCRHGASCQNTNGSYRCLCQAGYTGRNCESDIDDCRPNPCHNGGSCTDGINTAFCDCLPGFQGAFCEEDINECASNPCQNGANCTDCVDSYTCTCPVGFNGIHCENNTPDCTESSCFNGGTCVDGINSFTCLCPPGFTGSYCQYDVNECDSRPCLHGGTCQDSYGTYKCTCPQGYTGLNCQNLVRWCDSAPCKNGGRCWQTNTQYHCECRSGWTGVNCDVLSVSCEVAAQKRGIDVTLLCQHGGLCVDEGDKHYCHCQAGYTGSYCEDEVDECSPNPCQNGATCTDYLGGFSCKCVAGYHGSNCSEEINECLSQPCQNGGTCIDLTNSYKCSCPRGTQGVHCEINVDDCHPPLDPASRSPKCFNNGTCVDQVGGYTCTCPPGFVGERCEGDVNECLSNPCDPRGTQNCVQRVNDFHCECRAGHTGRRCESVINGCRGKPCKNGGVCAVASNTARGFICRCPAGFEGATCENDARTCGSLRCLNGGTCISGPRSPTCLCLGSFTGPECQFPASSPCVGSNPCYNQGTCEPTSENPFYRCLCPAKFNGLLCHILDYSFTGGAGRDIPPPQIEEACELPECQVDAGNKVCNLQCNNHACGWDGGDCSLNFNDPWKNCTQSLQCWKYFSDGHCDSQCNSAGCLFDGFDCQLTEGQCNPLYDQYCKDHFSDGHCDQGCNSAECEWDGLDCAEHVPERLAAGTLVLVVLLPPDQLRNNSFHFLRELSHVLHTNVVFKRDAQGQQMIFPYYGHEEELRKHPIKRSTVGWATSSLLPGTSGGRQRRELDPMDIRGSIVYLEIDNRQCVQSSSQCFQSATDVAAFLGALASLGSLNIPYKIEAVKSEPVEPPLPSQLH

- Kd (mNotch1ECD-Fc [1]): 1500 nM
- signal:noise of binding to Notch1 versus BSA (mNotch1ECD-Fc [2]): ~3 ratio (Notch1 : BSA)
B1: MuDLL1.DSL-EGF12.Tan 6 (NL 99) (ligand)
chain: MAAHHHHHHGGENLYFQGFVCDEHYYGEGCSVFCRPRDDAFGHFTCGDRGEKMCDPGWKGQYCTDPICLPGCDDQHGYCDKPGECKCRVGWQGRYCDECIRYPGCLHGTCQQPWQCNCQEGWGGLFCNQGSSGSSGFVCDEHYYGEGCSVFCRPRDDAFGHFTCGDRGEKMCDPGWKGQYCTDPICLPGCDDQHGYCDKPGECKCRVGWQGRYCDECIRYPGCLHGTCQQPWQCNCQEGWGGLFCNQGSSGSSGFVCDEHYYGEGCSVFCRPRDDAFGHFTCGDRGEKMCDPGWKGQYCTDPICLPGCDDQHGYCDKPGECKCRVGWQGRYCDECIRYPGCLHGTCQQPWQCNCQEGWGGLFCNQGSSGSSGFVCDEHYYGEGCSVFCRPRDDAFGHFTCGDRGEKMCDPGWKGQYCTDPICLPGCDDQHGYCDKPGECKCRVGWQGRYCDECIRYPGCLHGTCQQPWQCNCQEGWGGLFCNQGSSGSSGFVCDEHYYGEGCSVFCRPRDDAFGHFTCGDRGEKMCDPGWKGQYCTDPICLPGCDDQHGYCDKPGECKCRVGWQGRYCDECIRYPGCLHGTCQQPWQCNCQEGWGGLFCNQGSSGSSGFVCDEHYYGEGCSVFCRPRDDAFGHFTCGDRGEKMCDPGWKGQYCTDPICLPGCDDQHGYCDKPGECKCRVGWQGRYCDECIRYPGCLHGTCQQPWQCNCQEGWGGLFCNQ
notes: also called DLL1 Tandem 6×; hexamer
